The results in this text go back to US20250237651A1 (ASAHI KASEI, published 2025).

Assay [1] has as its target T1, Ribosomal protein L7/L12 of Neisseria meningitidis (in extracted sample solution of the bacteria) (Neisseria meningitidis, UniProt A1KRG5 1-123).
T1 construct: also called Neisseria meningitidis L7/L12
T1 sequence: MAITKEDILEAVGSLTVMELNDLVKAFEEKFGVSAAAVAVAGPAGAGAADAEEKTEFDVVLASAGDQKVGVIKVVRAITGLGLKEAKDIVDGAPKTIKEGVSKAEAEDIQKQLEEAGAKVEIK
Kind of assay: sandwich ELISA, capture NG3, HRP-labelled NG1, N. meningitidis extract.

For assay [2], the target named is T2, Ribosomal protein L7/L12 of Neisseria gonorrhoeae (in extracted sample solution of the bacteria) (Neisseria gonorrhoeae, UniProt B4RQW1 1-123).
T2 construct: also called Neisseria gonorrhoeae L7/L12; Neisseria gonorrhoeae-derived antigen
T2 sequence: T1 sequence with E115A
Kind of assay: sandwich ELISA, primary (capture) NG1, HRP-labelled secondary NG3, N. gonorrhoeae extract 1e6 cfu/mL; Absorbance difference A 1.0 or greater. On the technique in general: ELISA stands for enzyme-linked immunosorbent assay.

In assay [3] the target is T3, Polypeptide 5 (all of the L7/L12 amino acid sequence of Neisseria meningitidis) (Neisseria meningitidis, UniProt A1KRG5 1-123).
T3 construct: Differs from Neisseria gonorrhoeae L7/L12 only at residue 115 (glutamic acid instead of alanine); Purified as a tagged fusion protein
T3 sequence: T1 sequence
Kind of assay: ELISA, polypeptide solid-phased at 2 ug/mL, HRP-labeled anti-IgG.

In assay [4] the target is T4, Polypeptide 4 (part of Neisseria gonorrhoeae L7/L12 lacking amino acid residues 102 to 123) (Neisseria gonorrhoeae, UniProt A1KRG5 1-101).
T4 construct: Purified as a tagged fusion protein
T4 sequence: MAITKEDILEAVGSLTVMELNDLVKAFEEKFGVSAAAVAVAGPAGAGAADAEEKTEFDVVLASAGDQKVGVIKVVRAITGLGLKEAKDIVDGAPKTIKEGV
Described as above.

The target in assay [5] is T5, Polypeptide 2 (part of Neisseria gonorrhoeae L7/L12 lacking amino acid residues 1 to 14) (Neisseria gonorrhoeae, UniProt B4RQW1 15-123).
T5 construct: Purified as a tagged fusion protein
Kind of assay: ELISA, polypeptide solid-phased at 2 ug/mL, antibody 100 ng/ml; + = absorbance 450 nm 0.1 or greater.

Assay [6] deals with T6, Polypeptide 3 (part of Neisseria gonorrhoeae L7/L12 lacking amino acid residues 1 to 63) (Neisseria gonorrhoeae, UniProt B4RQW1 64-123).
T6 construct: Purified as a tagged fusion protein
T6 sequence: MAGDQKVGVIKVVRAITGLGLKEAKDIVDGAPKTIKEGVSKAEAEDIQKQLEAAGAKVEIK
Described as above.

Assay [7] has as its target T7, Polypeptide 1 (all of the amino acid sequence of ribosomal protein L7/L12 of Neisseria gonorrhoeae) (Neisseria gonorrhoeae, UniProt B4RQW1 1-123).
T7 construct: Expressed in E. coli and purified as a fusion protein through a vector-derived tag
T7 sequence: T1 sequence with E115A
The description is as above.

Substitutions are numbered along the chain they refer to.

B1: Antibody NG1 (antibody, V domains shown)
VH: EVQLQQSGAELVKPGASVKLSCTASGFNIKDTYIYWVKQRPEQGLEWIGRIDPANGHTKCDPKFQGKATITSDTSSNTAYLQLNSLTSEDTAVYYCSKGYFHYWGQGTTLTVSS
VL: DIQMTQSPSSLSASLGERVSLTCRASQEISGYLSWLQQKPDGTIKRLIYAASTLDSGVPKRFSGSRSGSDYSLTISSLESEDFADYYCQQYDSYPWTFGGGTKLEIK
notes: Mouse hybridoma monoclonal antibody raised against polypeptide 1; detected with an anti-IgG antibody; HRP-labelled or gold-colloid-labelled when used as detection antibody; also called Antibody species A
As to B1, the binding result in assay [1] is reported as “no binding”; in assay [2], “binds”; in assay [3], “no binding”; in assay [4], “no binding”; in assay [5], “binds”; in assay [6] it was “binds”. Besides, in assay [7], the binding result is given as “binds”.
